The target of this assay is Mycobacterium tuberculosis cytochrome bcc complex (QcrCAB) (M. tuberculosis) (UniProt P9WP35). In words: pyridine hemochrome heme quantification.

As for “Mycobacterium smegmatis cytochrome aa3 (cytochrome oxidase) (complex)”, the stoichiometry N – broadly, the number of molecules, sites or subunits per partner or assembly – is 1.
